Experimental data: patent US11015206B2, “Compositions and methods comprising sequences having hydroxyphenylpyruvate dioxygenase (HPPD) activity” (PIONEER HI-BRED INTERNATIONAL, INC., priority 2014, dated 2021)

Key:
Assay type in all cases: biochemical, Z. mays
[1] = system: 4-hydroxyphenylpyruvate dioxygenase (HPPD); experiment: HPPD activity coupled assay with HGD; substrate saturation kinetic parameters (kcat, KM); settings: substrate saturation kinetic analysis
Procedure, shortened: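 Coupled continuous assay: His-tagged HPPD (5 to 240 nM, E. coli-expressed, Ni-NTA-purified) with 50 nM P. aeruginosa HGD in 25 mM Hepes pH 7, 2 mM ascorbate, 10 μM FeSO4; maleylacetoacetate followed at 320 nm. KM and Vmax from Lineweaver-Burke fits over 3.33–100 μM HPP.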

[2] = system: 4-hydroxyphenylpyruvate dioxygenase (HPPD); experiment: ON rate ratio: HPPD reaction rate with vs without inhibitor in the 70 to 90 second interval
Procedure, shortened: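 Time courses of HPPD reactions, 60 or 120 nM enzyme with 100 μM HPP substrate, run with and without 4 μM inhibitor (e.g. mesotrione, tembotrione). Value is the rate with inhibitor over rate without, taken over 70–90 s; higher ratio reflects slower kON.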

[3] = system: 4-hydroxyphenylpyruvate dioxygenase (HPPD); experiment: OFF rate ratio: release of inhibitor from pre-formed enzyme-inhibitor complex
Procedure, shortened: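 HPPD (7.2 μM) pre-incubated 1 h at RT with inhibitor (8 μM), then diluted into 25 mM Hepes pH 7, 2 mM ascorbate, 10 μM FeSO4, 100 μM HPP, 50 nM HGD; A320 followed 12 min. Ratio = steady-state rate with inhibitor over initial rate of inhibitor-free enzyme.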

[4] = Table 7, tembotrione, combinatorial variants
[5] = inhibitor diketonitrile form of isoxaflutole (DKN)

- ON rate ratio [2, 4]: 0.697
- Insensitivity, isoxaflutole (DKN), Rate ratio ON [2, 5]: 0.82
- Insensitivity, mesotrione, Rate ratio ON ([2]; inhibitor mesotrione): 0.67
- Insensitivity, sulcotrione, Rate ratio ON ([2]; inhibitor sulcotrione): 0.80
- Insensitivity, tembotrione, Rate ratio ON ([2]; inhibitor tembotrione): 0.84
- Insensitivity, topramezone, Rate ratio ON ([2]; inhibitor topramezone): 0.85
- OFF rate ratio [3, 4]: 0.249
- Insensitivity, isoxaflutole (DKN), Rate ratio OFF [3, 5]: 0.44
- Insensitivity, mesotrione, Rate ratio OFF ([3]; inhibitor mesotrione): 1.00
- Insensitivity, sulcotrione, Rate ratio OFF ([3]; inhibitor sulcotrione): 1.22
- Insensitivity, tembotrione, Rate ratio OFF ([3]; inhibitor tembotrione): 0.43
- Insensitivity, topramezone, Rate ratio OFF ([3]; inhibitor topramezone): 0.60
B1: P056028-A-01 (protein)
chain: MGPTPTATAAGAAVAAASAAEQAAFRLVGHRNFVRFNPRSDRFQTLAFHHVELWCADAASAAGRFSFALGVPLAARSDLSTGNSAHASLLLRSGSLSLLFTAPYAHGADAATAALPSFSAAAARRFAADHGLAVRAVALRVADAEDAFRASVAAGARPAFGPVDLGRGFRLAEVELYGDVVLRYVSYPDGAAGEPFLPGFEGVASPGAADYGLSRFDHIVGNVPELAPAAAYMAGFTGFHEFAEFTTEDVGTTESGLNSMALANNSENVLLPLNEPVHGTKRRSQIQTFLDHHGGPGVQHIALASDDVLRTLREMRARSAMGGFEFLPPPLSDYYDGVRRCAGDVLTEAQINECQELGVMVDRDDEGVLLQIFTKPVGDRPTFFLEIIQRIGCMEKDEKGQEYQKGGCGGFGKGNFGQLFKSIEDYEKSLEAKRAAAAATAQGS
modifications: Zea mays variant form created by artificial means.
- Km [1]: 2.49 µM
- kcat [1]: 1.21 s⁻¹
